Assay results taken from US20260167710A1.

Legend:
[1] = biological target: cynomolgus recombinant neonatal receptor (FcRn) (cynomolgus monkey) (UniProt Q8SPV9); assay: SPR (ProteOn XPR36), antibody captured by protein L, FcRn as analyte, equilibrium fit, pH 6.0, 25 C
[2] = biological target: human recombinant neonatal receptor (FcRn) (human) (UniProt P55899); assay: as above
[3] = biological target: cynomolgus recombinant neonatal receptor (FcRn) (cynomolgus monkey) (UniProt Q8SPV9); assay: SPR (ProteOn XPR36), antibody captured by protein L, FcRn as analyte, equilibrium fit, pH 7.4, 25 C
[4] = biological target: human recombinant neonatal receptor (FcRn) (human) (UniProt P55899); assay: as above
[5] = biological target: human complement component C1q (human) (UniProt P02745); assay: SPR (ProteOn XPR36), antibody immobilised by amine coupling, C1q as analyte, equilibrium fit, 25 C
human complement component C1q (human), sequence (P02745 23-245 limits assumed, chain 1 of 3): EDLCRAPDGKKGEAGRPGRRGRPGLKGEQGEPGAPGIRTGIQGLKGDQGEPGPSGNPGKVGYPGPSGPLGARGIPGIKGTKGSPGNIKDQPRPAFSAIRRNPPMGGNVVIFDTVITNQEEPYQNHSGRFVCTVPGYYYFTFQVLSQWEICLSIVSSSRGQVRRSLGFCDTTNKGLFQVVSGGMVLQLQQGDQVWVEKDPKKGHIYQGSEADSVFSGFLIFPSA
human complement component C1q (human), sequence (P02746 28-253 limits assumed, chain 2 of 3, further chain): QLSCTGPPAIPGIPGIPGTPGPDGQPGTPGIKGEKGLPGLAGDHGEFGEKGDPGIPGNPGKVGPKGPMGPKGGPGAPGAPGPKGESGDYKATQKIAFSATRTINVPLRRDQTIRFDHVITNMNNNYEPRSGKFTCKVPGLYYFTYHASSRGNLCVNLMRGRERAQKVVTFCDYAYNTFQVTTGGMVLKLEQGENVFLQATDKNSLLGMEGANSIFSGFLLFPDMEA
human complement component C1q (human), sequence (P02747 29-245 limits assumed, chain 3 of 3, further chain): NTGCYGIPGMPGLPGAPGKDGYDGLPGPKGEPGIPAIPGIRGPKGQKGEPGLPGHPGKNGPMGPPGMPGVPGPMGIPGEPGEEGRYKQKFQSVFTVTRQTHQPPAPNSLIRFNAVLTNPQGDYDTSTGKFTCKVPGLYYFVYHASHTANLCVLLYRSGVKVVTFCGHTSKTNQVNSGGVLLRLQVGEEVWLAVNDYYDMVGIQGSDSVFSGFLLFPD

[6] = biological target: cFcgRIIb (cynomolgus monkey); assay: SPR (ProteOn XPR36), anti-poly-histidine IgG surface, antibody as analyte, equilibrium fit, 25 C
[7] = biological target: cFcgRIIa (cynomolgus monkey); assay: as above
[8] = biological target: hFcgRI (human) (UniProt P12314); assay: as above
hFcgRI (human), sequence (P12314 16-292): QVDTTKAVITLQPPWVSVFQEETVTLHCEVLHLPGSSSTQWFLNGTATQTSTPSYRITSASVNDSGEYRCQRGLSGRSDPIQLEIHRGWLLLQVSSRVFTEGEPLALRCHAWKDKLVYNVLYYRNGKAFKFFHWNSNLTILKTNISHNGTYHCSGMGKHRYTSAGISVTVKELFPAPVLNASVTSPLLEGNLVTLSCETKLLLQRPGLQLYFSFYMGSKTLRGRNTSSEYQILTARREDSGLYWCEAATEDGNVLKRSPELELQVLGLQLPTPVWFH

[9] = biological target: hFcgRIIa (R131) (human) (UniProt P12318); assay: as above
hFcgRIIa (R131) (human), sequence (P12318 34-217 H167R): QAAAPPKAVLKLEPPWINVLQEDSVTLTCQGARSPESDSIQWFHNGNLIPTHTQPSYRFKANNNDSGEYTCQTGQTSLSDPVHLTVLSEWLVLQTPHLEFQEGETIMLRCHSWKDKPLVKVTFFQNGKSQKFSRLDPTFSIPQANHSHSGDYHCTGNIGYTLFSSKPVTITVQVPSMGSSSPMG

[10] = biological target: hFcgRIIIa (F158) (human) (UniProt P08637); assay: as above
hFcgRIIIa (F158) (human), sequence (P08637 17-208): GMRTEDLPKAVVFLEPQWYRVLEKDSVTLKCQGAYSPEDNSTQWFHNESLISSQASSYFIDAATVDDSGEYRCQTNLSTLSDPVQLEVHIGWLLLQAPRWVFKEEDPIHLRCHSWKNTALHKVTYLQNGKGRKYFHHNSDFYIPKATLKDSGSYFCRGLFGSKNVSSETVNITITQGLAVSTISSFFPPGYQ

[11] = biological target: hFcgRIIa (H131) (human) (UniProt P12318); assay: as above
hFcgRIIa (H131) (human), sequence (P12318 34-217): as the sequence (P12318 34-217 H167R) above, with R134H counted along it

[12] = biological target: hFcgRIIIa (V158) (human) (UniProt P08637); assay: as above
hFcgRIIIa (V158) (human), sequence (P08637 17-208 F176V): as the sequence (P08637 17-208) above, with F160V counted along it

[13] = biological target: cFcgRIIIa (cynomolgus monkey); assay: as above
cFcgRIIIa (cynomolgus monkey), sequence (Q8SPW2 17-208): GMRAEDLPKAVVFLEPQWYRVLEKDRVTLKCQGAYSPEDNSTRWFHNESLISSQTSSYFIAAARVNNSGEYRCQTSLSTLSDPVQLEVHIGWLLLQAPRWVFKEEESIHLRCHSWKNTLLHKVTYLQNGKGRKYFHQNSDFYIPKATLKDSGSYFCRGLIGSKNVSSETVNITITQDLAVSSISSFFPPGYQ

human recombinant neonatal receptor (FcRn) (human), sequence (P55899 24-297 limits assumed, chain 1 of 2): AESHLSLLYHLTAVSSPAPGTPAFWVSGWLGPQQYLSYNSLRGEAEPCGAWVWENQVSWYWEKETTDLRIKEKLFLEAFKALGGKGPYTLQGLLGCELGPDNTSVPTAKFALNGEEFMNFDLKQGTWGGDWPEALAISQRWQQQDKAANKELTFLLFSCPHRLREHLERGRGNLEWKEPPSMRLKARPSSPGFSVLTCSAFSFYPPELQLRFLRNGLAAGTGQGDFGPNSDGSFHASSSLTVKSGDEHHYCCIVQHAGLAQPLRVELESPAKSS
human recombinant neonatal receptor (FcRn) (human), sequence (P61769 21-119 limits assumed, chain 2 of 2, further chain): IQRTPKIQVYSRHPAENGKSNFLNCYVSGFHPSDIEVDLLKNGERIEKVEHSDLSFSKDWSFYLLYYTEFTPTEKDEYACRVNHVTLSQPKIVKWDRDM

Substance | Kd [1] [nM] | Kd [2] [nM] | Kd [3] [nM] | Kd [4] [nM] | Kd [5] [nM] | Kd [6] [nM] | Kd [7] [nM] | Kd [8] [nM] | Kd [9] [nM] | Kd [10] [nM] | Kd [11] [nM] | Kd [12] [nM] | Kd [13] [nM]
Human IgG1 YTE control (antibody) | 39.3 | 30.4 | 2760 | 4330 |  |  |  |  |  |  |  |  | 
Anti-RSV hIgG1 wildtype control (antibody) | 146 | 129 |  |  | 680 | 1450 | 2210 | 28.3 | 528 | 735 | 884 | 232 | 141
